Data: the supplement of paper PMC10567573

B1: RHOBTB2 (parent)
chain: HHHHGRDFLLRAASFDVCESVDEA
B2: PPEF2 (parent)
chain: FIPSSHNDRDFLTRIFTEDRFAQD

Variants of: B1
Test: protein stability index of a GFP-peptide fusion (GPS, HEK-293T) (PSI 1-6); higher = more stable
Conditions: c terminus: a fixed tail appended
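Also: lentivirally expressed fusions sorted by FACS into six bins by GFP to DsRed ratio, PSI derived from sequencing read proportions per bin multiplied by bin number.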

Protein stability index: each site, then its substitutions
V21: W 3.61, S 3.62, Y 3.66, D 4.84, F 3.47, P 3.61, H 3.08, K 4.5, I 3.96, M 3.92, G 4.17, N 4.18, E 4.51, C 3.25, A 3.8, Q 4.2, R 3.68, L 3.62, T 3.56
A24: N 3.59, W 2.53, M 3.61, S 3.82, R 3.75, Q 3.86, C 3.04, E 4.15, G 3.88, D 4.26, L 3.75, K 3.85, Y 3.29, F 2.65, P 3.56, V 3.27, H 3.92, I 3.17, T 3.95
E19: M 2.44, T 2.76, P 3.06, S 2.71, Q 3.34, R 2.73, N 3.54, Y 1.74, V 2.49, W 2.2
S20: Y 3.21, M 2.71, L 3.16, W 2.39, R 3.34, C 2.94, H 2.81, V 3.03, N 3.98, E 4.46, D 4.1, T 4, F 2.88, G 4.1, A 3.08, P 3.76, Q 3.83, K 4.12, I 2.73
D22: W 1.82, Y 2.44, I 2.5, M 3.04, T 3, G 3, Q 3.09, C 2.56, P 2.85, L 2.33, H 2.99, R 3.15, A 3, S 3.44, V 2.91, E 3.77, N 3.14, K 3.33, F 2.21
E23: C 2.67, G 3.21, F 2.37, W 2.52, A 2.94, T 3.13, N 3.26, H 2.93, P 3.65, Y 2.83, L 2.02, V 2.45, M 3.34, Q 3.66, K 2.57, S 3.25, I 2.92, R 3.37, D 3.39

Variants of: B2
Test: as above
Conditions: c terminus: a fixed tail appended

Protein stability index, by site and new letter:
P3: A 2.23, R 1.72, F 1.79, W 2.3, K 1.25, V 1.97, N 2.25, G 2.1, T 1.99, M 1.34, H 2.35, Y 1.84, E 2.82, D 2.75, L 1.92, C 1.3, I 2.19, Q 1.92, S 1.91
D10: Q 2.77, T 2.54, M 1.87, P 2.14, A 2.69, Y 2.39, S 2.37, V 3.75, H 2.8, W 2.6, G 2.46, E 1.96, I 3.22, R 2.67, C 2.41, N 2.96, K 1.89, F 2.05
F1: E 4.06, Q 4.19, K 3.85, W 3.04, D 3.89, R 3.75, H 4.22, L 3.73, Y 1.63, S 4.4, N 4.05, T 4.21, V 3.88, M 4.06, C 4.21, G 4.38, I 3.54, P 4.18, A 4.31
S4: E 1.63, T 2.57, Y 1.94, P 1.8, R 2.14, V 2.29, G 2.53, M 1.31, K 2.29, A 2.19, I 3.25, D 2.11, H 1.76, N 3.06, L 2.02, Q 1.89, W 2.19, C 1.39, F 1.99
I2: E 3.85, C 1.46, N 1.96, V 2.73, Q 1.5, Y 3.38, S 2.2, R 3.12, D 4.44, T 3.63, M 2.07, W 2.23, F 3.32, G 2.62, P 1.78, H 2.06, A 3.29, L 2.96, K 2.92
D8: N 1.99, M 1.93, T 2.1, A 1.89, L 1.52, W 2.16, F 2.38, V 2.08, Q 2.15, E 1.53, Y 2.55, P 1.89, H 2.04, K 1.53, G 2.51, I 1.68, R 2.25, C 2.03, S 1.3
L12: Y 1.98, M 1.53, D 2.26, K 2.38, Q 1.82, S 1.54, I 3.01, C 2.29, H 2.33, V 2.86, P 1.74, T 2.17, G 1.52, A 2.82, R 1.72, W 2.85, N 1.45, F 2.18, E 2.2
F11: C 2.8, Y 2.1, D 2.74, E 2.33, N 2.67, H 1.89, L 1.56, W 1.93, Q 2, T 1.7, K 1.76, V 2.01, S 1.58, I 1.8, A 1.98, R 1.99, P 2.16, G 2.21, M 2.13
H6: G 2.07, P 1.49, V 1.5, Q 1.73, K 2.23, D 2.56, E 1.99, S 1.91, C 1.61, M 1.09, W 1.71, N 1.47, L 2.23, I 2.44, Y 2.21, F 1.21, R 1.68, T 1.38, A 1.71
S5: G 1.74, N 1.92, R 2.03, K 1.67, V 2.09, I 2.04, D 2.67, L 1.41, E 2.4, T 2.17, Q 2.55, W 1.58, Y 1.97, P 2.29, F 1.55, C 1.9, A 2.53, H 1.89, M 1.44
R9: N 1.76, W 2.3, Q 1.53, M 2.3, F 2.21, A 2.23, L 1.81, V 2.2, K 2.48, C 2.23, S 1.98, H 1.54, E 1.89, P 1.69, Y 1.89, G 2.01, D 2.18, T 1.74, I 1.76
N7: P 1.92, Y 2.95, S 1.73, Q 2.46, E 2.39, V 1.8, R 2.33, F 1.89, D 1.56, M 2.22, T 2.17, I 2.11, W 1.6, G 2.01, A 1.65, H 3.59, K 2.99, L 1.97, C 2.17
T13: C 2.75, A 2.57
